Holding throughout (conditions): both partners purified
The target of test [1] is T1, Rab escort protein (REP), recombinant REP‐His (Arabidopsis thaliana, UniProt Q8LLD4 1-563).
T1 construct: Rab escort protein (REP) of Arabidopsis thaliana, wild type; Plasmid was a gift (Dr. Michal Hala); HDX‐MS peptides are reported from region 1–14 to beyond amino acid 534, so the whole protein was probably present; also called WT REP; AtREP; source: E. coli BL21(DE3)pLysS, purified (Ni‐NTA agarose, HiTrapQ, Superdex 75)
T1 sequence (looked up): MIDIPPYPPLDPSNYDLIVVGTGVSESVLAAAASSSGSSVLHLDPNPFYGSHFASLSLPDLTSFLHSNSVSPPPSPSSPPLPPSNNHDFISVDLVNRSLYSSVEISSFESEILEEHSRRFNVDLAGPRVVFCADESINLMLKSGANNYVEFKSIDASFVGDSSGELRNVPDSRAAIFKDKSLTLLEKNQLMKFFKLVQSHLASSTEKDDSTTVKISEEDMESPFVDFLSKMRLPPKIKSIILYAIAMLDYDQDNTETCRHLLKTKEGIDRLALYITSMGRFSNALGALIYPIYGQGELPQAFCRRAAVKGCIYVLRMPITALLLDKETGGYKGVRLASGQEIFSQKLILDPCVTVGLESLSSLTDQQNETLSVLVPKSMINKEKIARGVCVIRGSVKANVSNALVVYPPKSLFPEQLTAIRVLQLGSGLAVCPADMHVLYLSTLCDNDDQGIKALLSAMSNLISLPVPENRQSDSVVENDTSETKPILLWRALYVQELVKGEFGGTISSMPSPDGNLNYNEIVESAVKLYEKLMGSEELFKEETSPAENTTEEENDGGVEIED
The experiment in a line: SEC; purified proteins diluted to 65 nM in 200 μl Tris 20 mM pH 7.5, 100 mM NaCl, 10 mM MgCl2, 1 mM DTT, 1.5 mM GDP, incubated 4 h at room temperature; Superdex 75 10/300 GL; fractions resolved by SDS‐PAGE. Background: SEC sorts molecules by how far they enter the pores of the column.

Test [2] has as its target T2, REPΔC‐His, truncated form of REP lacking 30 C‐terminal amino acids (Arabidopsis thaliana, UniProt Q8LLD4 1-533).
T2 construct: Rab escort protein (REP) of Arabidopsis thaliana lacking 30 C‐terminal amino acids; cloned from pGWB551‐REP with primers BP‐rep‐F and BP‐rep‐R into pET301/CT‐DEST; Gateway cloning (pDONR201, pET301/CT‐DEST) may add linker residues between REP and the His tag; also called truncated mutant; truncated REP version; source: E. coli BL21(DE3)pLysS, purified (Ni‐NTA agarose)
T2 sequence (looked up): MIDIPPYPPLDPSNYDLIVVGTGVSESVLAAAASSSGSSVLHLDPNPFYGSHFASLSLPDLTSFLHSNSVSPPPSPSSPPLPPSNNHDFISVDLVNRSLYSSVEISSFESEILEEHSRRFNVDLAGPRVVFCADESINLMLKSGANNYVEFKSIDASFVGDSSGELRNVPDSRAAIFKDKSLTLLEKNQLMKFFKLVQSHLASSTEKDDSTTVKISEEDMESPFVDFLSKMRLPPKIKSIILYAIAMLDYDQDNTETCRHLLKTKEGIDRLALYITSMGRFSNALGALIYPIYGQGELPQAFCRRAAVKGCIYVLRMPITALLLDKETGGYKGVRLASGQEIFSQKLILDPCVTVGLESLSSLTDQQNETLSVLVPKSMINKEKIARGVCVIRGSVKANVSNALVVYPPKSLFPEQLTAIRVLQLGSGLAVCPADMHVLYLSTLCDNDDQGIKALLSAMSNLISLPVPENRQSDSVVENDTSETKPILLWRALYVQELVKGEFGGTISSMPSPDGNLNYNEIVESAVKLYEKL
The test is described as above.

Test [3] addresses T1, Rab escort protein (REP), recombinant …. Nature of the test: HDX-MS; complexes of REP‐His with GST‐Rab from SEC against each protein alone (apo); 20 mM Tris‐DCl, 100 mM NaCl, 5 mM MgCl2, 1 mM GDP pH 7.5 in D2O; 10 sec, 1 min, 60 min; pepsin digestion; triplicate.

B1: Rab‐E1d cleaved from its GST tag (natural protein)
chain: not shown
notes: Rab‐E1d of Arabidopsis thaliana, from GST‐Rab‐E1d (pGEX4T1, SmaI) after thrombin cleavage; A few vector‐derived residues probably remain at the end after thrombin cleavage; also called E1d no tag; untagged Rab‐E1d
As for B1, in test [1], the binding result is listed as “binds”.

B2: GST‐Rab‐E1d (natural protein)
chain: not shown
notes: Rab‐E1d of Arabidopsis thaliana, cloned from Col‐0 leaf cDNA into pGEX4T1 cut with SmaI; unprenylated; Used in the presence of GDP; source: E. coli BL21(DE3)pLysS, purified (Glutathione‐Sepharose 4B, Superdex 75)
B2: the binding result in test [1] and in test [2] was “binds” throughout.

B3: GST‐Rab‐F2b (natural protein, Arabidopsis thaliana, UniProt Q9SN68 1-200, looked up)
chain: MAAAGNKSINAKLVLLGDVGAGKSSLVLRFVKDQFVEFQESTIGAAFFSQTLAVNDATVKFEIWDTAGQERYHSLAPMYYRGAAAAIIVFDVTNQASFERAKKWVQELQAQGNPNMVMALAGNKSDLLDARKVTAEDAQTYAQENGLFFMETSAKTATNVKEIFYEIARRLPRVQPTENPTGMVLPDRAMDRAVSSSCCA
notes: Rab‐F2b of Arabidopsis thaliana, cloned from Col‐0 leaf cDNA into pGEX4T1 cut with SmaI; unprenylated; Used in the presence of GDP; source: E. coli BL21(DE3)pLysS, purified (Glutathione‐Sepharose 4B, Superdex 75)
In the case of B3, the binding result in test [3] is “binds”.

B4: GST‐Rab‐D1 (natural protein)
chain: not shown
notes: Rab‐D1 of Arabidopsis thaliana, cloned from Col‐0 leaf cDNA into pGEX4T1 cut with SmaI; unprenylated; Used in the presence of GDP; source: E. coli BL21(DE3)pLysS, purified (Glutathione‐Sepharose 4B, Superdex 75)
As to B4, the binding result in test [3] and in test [2] was “binds” in each case.
